From patent US20020160955A1 (published 2002) come the findings set out here.

What all share (assay): competitive phage ELISA
(In general: An ELISA detects its analyte on a solid surface through an enzyme-linked reagent.)

The target of test [1] is T1, IGF-I S69A (G1S-A70V background) displayed on phage (human; bacteriophage M13, UniProt P69168 267-424).
T1 chain: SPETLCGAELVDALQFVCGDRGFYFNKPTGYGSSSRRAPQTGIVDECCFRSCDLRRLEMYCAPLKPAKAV
The essentials: (§1)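 Phage, normalized to a maximal ELISA signal of 0.2-0.4 per mutant, were premixed with threefold serial dilutions of soluble competitor in 0.5% Tween 20/PBS and incubated 1 h at room temperature on immobilized target.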

For test [2], the target named is T2, IGF-I E9A (G1S-A70V background) displayed on phage (human; bacteriophage M13).
T2 construct: monovalent M13 phage display
T2 chain: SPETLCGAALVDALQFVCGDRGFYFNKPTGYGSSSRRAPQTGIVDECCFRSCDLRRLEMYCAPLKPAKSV
The essentials:
as §1

For test [3], the target named is T3, IGF-I V17A (G1S-A70V background) displayed on phage (human; bacteriophage M13).
T3 construct: monovalent M13 phage display
T3 chain: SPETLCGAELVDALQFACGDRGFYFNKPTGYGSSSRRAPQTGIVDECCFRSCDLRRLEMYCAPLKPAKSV
The essentials: as §1

Test [4] addresses T4, IGF-I R21A (G1S-A70V background) displayed on phage (human; bacteriophage M13, not fully specified; Displayed monovalently on M13 phage as a C-terminal fusion to the gene III fragment, which is left out of the letters.).
T4 construct: monovalent M13 phage display; not shown: Display carrier: M13 gene III fragment (residues 249-406) and its junction
T4 chain: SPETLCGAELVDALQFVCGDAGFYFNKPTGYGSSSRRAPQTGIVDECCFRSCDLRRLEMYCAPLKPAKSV
The essentials:
as §1

Test [5] has as its target T5, IGF-I G22A (G1S-A70V background) displayed on phage (human; bacteriophage M13, not fully specified; Displayed monovalently on M13 phage as a C-terminal fusion to the gene III fragment, which is left out of the letters.).
T5 construct: monovalent M13 phage display; not shown: Display carrier: M13 gene III fragment (residues 249-406) and its junction
T5 chain: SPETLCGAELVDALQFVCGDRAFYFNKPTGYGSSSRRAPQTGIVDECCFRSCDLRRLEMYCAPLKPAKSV
The essentials: as §1

The target of test [6] is T6, IGF-I F25A (G1S-A70V background) displayed on phage (human; bacteriophage M13, not fully specified; Displayed monovalently on M13 phage as a C-terminal fusion to the gene III fragment, which is left out of the letters.).
T6 construct: monovalent M13 phage display; not shown: Display carrier: M13 gene III fragment (residues 249-406) and its junction
T6 chain: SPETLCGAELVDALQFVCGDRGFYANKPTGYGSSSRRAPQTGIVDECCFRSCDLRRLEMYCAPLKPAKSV
The essentials:
as §1

For test [7], the target named is T7, IGF-I G30A (G1S-A70V background) displayed on phage (human; bacteriophage M13).
T7 construct: monovalent M13 phage display; not shown: M13 gene III fragment (residues 249-406, display partner) and the junction to it
T7 chain: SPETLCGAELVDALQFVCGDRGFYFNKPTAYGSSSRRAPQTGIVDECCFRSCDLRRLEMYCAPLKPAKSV
The essentials: as §1

Test [8] concerns the target T8, IGF-I L54A (G1S-A70V background) displayed on phage (human; bacteriophage M13).
T8 construct: monovalent M13 phage display
T8 chain: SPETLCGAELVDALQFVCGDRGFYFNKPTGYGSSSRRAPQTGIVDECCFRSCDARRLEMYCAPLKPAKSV
The essentials:
as §1

The target in test [9] is T9, des(1-2)-IGF-I displayed on phage (human; bacteriophage M13).
T9 construct: range 249-406; monovalent M13 phage display
The essentials: as §1

B1: human IGFBP-1 (other, UniProt P08833 26-259, looked up)
chain: APWQCAPCSAEKLALCPPVSASCSEVTRSAGCGCCPMCALPLGAACGVATARCARGLSCRALPGEQQPLHALTRGQGACVQESDASAPHAAEAGSPESPESTEITEEELLDNFHLMAPSEEDHSILWDAISTYDGSKALHVTNIKKWKEPCRIELYRVVESLAKAQETSGEEISKFYLPNCNKNGFYHSRQCETSMDGEAGLCWCVYPWNGKRIPGSPEIRGDPNCQIYFNVQN
notes: secreted recombinant protein purified from conditioned medium
With B1, the IC50 stood at 12.8 nM in [1]; 8.6 nM in test [2]; 42.9 nM in [3]; 7.1 nM in [4]; 15.9 nM in [5]; 181 nM in [6]. Moreover, the IC50 in test [7] amounted to 7.1 nM; in test [8], 23.1 nM; in test [9], 5 nM.

One may read the IC50 as the point on the concentration scale where inhibition reaches its midpoint. A high value points to lower potency.
